From US20240327530A1 (ICHNOS SCIENCES, published 2024)
Each block holds one binder with its values, some of them ahead of it.

Legend:
[1] = molecular target: T1, Recombinant human IL-1RAP-ECD(S21-E359)-avi-his protein (human, UniProt Q9NPH3 21-359); experiment: SPR, IgG1 LALA captured by anti-human Fc, human IL-1RAP-avi-his as analyte, 1:1 fit
T1 construct: Biotinylated where loaded on streptavidin; also called human IL-1RAP-ECD-Avi-His; recombinant human IL-1RAP-avi-his protein
T1 sequence: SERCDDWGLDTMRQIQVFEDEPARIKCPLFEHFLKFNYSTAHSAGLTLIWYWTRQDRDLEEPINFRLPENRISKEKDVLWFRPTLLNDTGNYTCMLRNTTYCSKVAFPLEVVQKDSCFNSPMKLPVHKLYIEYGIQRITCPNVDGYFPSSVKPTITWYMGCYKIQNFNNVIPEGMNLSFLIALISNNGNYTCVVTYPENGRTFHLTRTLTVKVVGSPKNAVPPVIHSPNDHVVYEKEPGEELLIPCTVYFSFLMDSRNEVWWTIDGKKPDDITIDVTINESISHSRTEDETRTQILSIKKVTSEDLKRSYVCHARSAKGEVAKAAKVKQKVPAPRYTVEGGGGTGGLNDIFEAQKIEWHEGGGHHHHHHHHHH
Method: Surface plasmon resonance (SPR) was used to measure the binding affinities of the human IgG1 LALA molecules for human and cynomolgus monkey IL-1RAP. Affinities were measured on a BIACORE™ T200 instrument (BIACORE™, GE […]®) at 25° C. and analyzed with the BIACORE™ T200 Evaluation Software (v3.1). Measurements were performed on Series S CM5 sensor chips (BIACORE™ T200, BIACORE™, GE […]®, catalog no. BR100530) coupled with anti-human IgG Fc (BIACORE™, GE […]®, catalog no. BR100839) using a commercial amine coupling kit (BIACORE™, GE […]®, catalog no. BR100050). SPR measurements were performed with recombinant human IL-1RAP-avi-his protein produced in house (SEQ ID NO. 1) or recombinant cynomolgus monkey IL-1RAP-avi-his protein produced in house (SEQ ID NO. 2). The affinities to human and cynomolgus monkey IL-1RAP were assessed by immobilizing anti-IL-1RAP IgG1 LALA molecules and using IL-1RAP proteins as analyte. Around 150 RU of human IgG1 LALA were captured on fc2 of a Series S CM5 sensor chip coupled with anti-human IgG Fc. Recombinant human IL-1RAP-avi-his protein or recombinant cynomolgus monkey IL-1RAP-avi-his protein was injected in multi cycle kinetic at different concentrations ranging from 0.14 to 100 nM, in HBS-EP+ buffer (BIACORE™, GE […]®, catalog no. BR100669) at a flow rate of 30 μl/min for 3 min on fc1 and fc2 (fc1 being used as reference). Dissociation was monitored for 12 min. After each cycle, the surface was regenerated with 60 μl of regeneration solution provided with anti-human IgG Fc capture kit (BIACORE™, GE […]®, catalog no. BR100839). Experimental data were processed using the 1:1 Langmuir kinetic fitting model. Measurements included zero-concentration samples for referencing. Chi², U- and residual values were used to evaluate the quality of a fit between the experimental data and individual binding models.

[2] = molecular target: T2, Recombinant mouse IL-1RAP-his (Sino Biologicals, catalog no. 52657-M08H) (mouse, UniProt Q61730 21-350); experiment: SPR, mouse IgG2a LALA captured on anti-mouse IgG Fc CM5 chip, mouse IL-1RAP-his as analyte in a concentration series, 1:1 fit, one representative replicate
T2 construct: Bought; not shown: His tag of the bought protein
T2 sequence: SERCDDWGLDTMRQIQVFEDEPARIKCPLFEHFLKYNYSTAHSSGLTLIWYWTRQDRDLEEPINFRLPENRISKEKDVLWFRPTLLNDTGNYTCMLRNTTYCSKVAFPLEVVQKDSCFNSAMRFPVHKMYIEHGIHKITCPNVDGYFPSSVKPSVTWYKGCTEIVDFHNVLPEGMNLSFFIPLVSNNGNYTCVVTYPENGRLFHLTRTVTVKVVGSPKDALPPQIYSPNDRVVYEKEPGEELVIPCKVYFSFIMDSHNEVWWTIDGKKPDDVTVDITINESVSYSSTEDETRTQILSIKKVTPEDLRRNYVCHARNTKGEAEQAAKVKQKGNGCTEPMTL
Method: Anti-IL-1RAP-C3-A3 mouse IgG2a LALA was immobilized on a Series S CM5 sensor CHIP coupled with anti-mouse IgG Fc. Mouse IL-1RAP-his was injected over immobilized IgG2a LALA in concentration series in HBS-EP+ buffer. One representative replicate is presented. Plots are showing data expressed as number of resonance units (abbreviated RU; Y axis) vs. time (s, X axis). Dotted lines represent the measured data while solid lines represent simulated fits. KD: equilibrium dissociation constant; Ka: association constant; Kd: dissociation constant.
Surface plasmon resonance (SPR) was used to measure the binding affinities of mouse IgG2a LALA molecules for mouse IL-1RAP. Affinity was measured on a BIACORE™ T200 instrument (BIACORE™ GE […]®) at 25° C. and analyzed with the BIACORE™ T200 Evaluation Software (v3.1). Measurements were performed on Series S CM5 sensor chips (BIACORE™ T200, BIACORE™, GE […]®, catalog no. BR100530) coupled with anti-mouse IgG Fc (BIACORE™, GE […]®, catalog no. BR100838) using a commercial amine coupling kit (BIACORE™, GE […]®, catalog no. BR100050). SPR measurements were performed with commercially available recombinant mouse IL-1RAP-his (Sino Biologicals, catalog no. 52657-M08H). The affinity to mouse IL-1RAP was assessed by immobilizing anti-mouse IL-1RAP mouse IgG2a LALA molecule and using mouse IL-1RAP protein as analyte. Around 150 RU of mouse IgG2a LALA was captured on fc2 of a Series S CM5 sensor chip coupled with anti-mouse IgG Fc. Mouse IL-1RAP-his was injected in multi cycle kinetic at different concentrations ranging from 0.14 to 100 nM, in HBS-EP+ buffer (BIACORE™, GE […]®, catalog no. BR100669) at a flow rate of 30 μl/min for 3 min on fc1 and fc2 (fc1 being used as reference). Dissociation was monitored for 15 min. After each cycle, the surface was regenerated with 60 μl of regeneration solution provided with anti-mouse IgG Fc capture kit (BIACORE™ GE […]®, catalog no. BR100838). Experimental data were processed using the 1:1 Langmuir kinetic fitting model. Measurements included zero-concentration samples for referencing. […]

Kd [1]: 0.251 nM
koff [1]: 0.000172 s⁻¹
kon [1]: 693000 M⁻¹ s⁻¹
B1: Anti-IL-1RAP-C8-RecC-ES-IgG1LALA (antibody, V domains shown)
VH: QVQLVQSGAEVKKPGSSVKVSCKASGSPAEPYAIQWVRQAPGQGLEWMGYIIPSLGGYDYAQKFQGRVTITADESTSTAYMELSSLRSEDTAVYYCARGQTLYESGRQFDIWGQGTLVTVSS
VL: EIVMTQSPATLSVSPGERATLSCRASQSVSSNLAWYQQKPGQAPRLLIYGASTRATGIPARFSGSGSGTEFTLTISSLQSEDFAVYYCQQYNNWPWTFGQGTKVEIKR
notes: also called ISB 880-C8-recC-ES

Kd [2]: 0.557 nM
koff [2]: 7.6e-05 s⁻¹
kon [2]: 137000 M⁻¹ s⁻¹
B2: Anti-IL-1RAP-C3-A3 mmIgG2a LALA (antibody, V domains shown)
VH: EVQLLESGGGLVQPGGSLRLSCAASGFIFSHYGMSWVRQAPGKGLEWVSAISYDGEGTLYADSVKGRFTISRDNSKNTLYLQMNSLRAEDTAVYYCARFRYYTAFDYWGQGTLVTVSS
VL: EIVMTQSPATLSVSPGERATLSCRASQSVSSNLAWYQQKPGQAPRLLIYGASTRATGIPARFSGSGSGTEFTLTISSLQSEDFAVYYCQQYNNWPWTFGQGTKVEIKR
notes: also called anti-IL-1RAP-C3-A3 mouse IgG2a LALA
